Experimental data: US20150079113A1

Target: α5 integrin (endogenous) (mouse) (UniProt P11688)
Experiment: cell-based or functional assay

Sequence of α5 integrin (endogenous) (mouse) (P11688 45-1053): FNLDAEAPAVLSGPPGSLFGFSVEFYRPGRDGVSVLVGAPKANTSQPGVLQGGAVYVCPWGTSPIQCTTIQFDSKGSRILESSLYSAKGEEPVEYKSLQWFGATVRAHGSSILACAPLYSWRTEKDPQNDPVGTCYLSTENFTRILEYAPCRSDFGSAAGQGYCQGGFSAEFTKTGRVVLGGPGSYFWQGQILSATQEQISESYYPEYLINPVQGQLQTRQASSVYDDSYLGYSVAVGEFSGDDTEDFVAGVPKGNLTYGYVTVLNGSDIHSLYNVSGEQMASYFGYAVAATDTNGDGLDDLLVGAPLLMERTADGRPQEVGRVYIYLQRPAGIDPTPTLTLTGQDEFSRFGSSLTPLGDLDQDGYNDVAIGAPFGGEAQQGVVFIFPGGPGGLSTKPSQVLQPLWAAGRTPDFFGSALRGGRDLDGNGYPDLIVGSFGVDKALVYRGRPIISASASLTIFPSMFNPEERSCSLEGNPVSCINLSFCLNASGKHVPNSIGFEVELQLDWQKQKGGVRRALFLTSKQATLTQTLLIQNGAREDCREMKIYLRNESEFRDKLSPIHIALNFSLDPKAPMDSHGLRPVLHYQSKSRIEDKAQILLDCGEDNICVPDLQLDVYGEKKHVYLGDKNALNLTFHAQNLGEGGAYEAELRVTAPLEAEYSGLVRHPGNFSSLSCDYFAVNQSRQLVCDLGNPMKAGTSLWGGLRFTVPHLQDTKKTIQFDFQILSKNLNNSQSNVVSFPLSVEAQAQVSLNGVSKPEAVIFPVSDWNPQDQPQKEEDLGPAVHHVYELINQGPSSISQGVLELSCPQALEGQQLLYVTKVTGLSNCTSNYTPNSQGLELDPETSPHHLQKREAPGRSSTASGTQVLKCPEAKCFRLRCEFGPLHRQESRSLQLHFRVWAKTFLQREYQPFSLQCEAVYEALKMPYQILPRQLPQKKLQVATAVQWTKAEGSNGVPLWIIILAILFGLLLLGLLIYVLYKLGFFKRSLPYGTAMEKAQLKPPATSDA

Question: How did the t1/2 of fluorescence recovery (FRAP) in nascent, peripheral adhesions, cells plated for 30 minutes on FN turn out when GFP-Mena (from UniProt Q03173 1-802) was run?
Answer: 18.9 s
